From patent US20160272693A1 (ZEALAND PHARMA A S, published 2016) come the findings set out here.

The target of this experiment is T1, human amylin receptor 3 (hAMYR3), hCTR2 co-expressed with human receptor activity modifying protein 3 (hRAMP3) (human, UniProt P30988 25-474; O60896 24-148).
T1 sequence (looked up) 1: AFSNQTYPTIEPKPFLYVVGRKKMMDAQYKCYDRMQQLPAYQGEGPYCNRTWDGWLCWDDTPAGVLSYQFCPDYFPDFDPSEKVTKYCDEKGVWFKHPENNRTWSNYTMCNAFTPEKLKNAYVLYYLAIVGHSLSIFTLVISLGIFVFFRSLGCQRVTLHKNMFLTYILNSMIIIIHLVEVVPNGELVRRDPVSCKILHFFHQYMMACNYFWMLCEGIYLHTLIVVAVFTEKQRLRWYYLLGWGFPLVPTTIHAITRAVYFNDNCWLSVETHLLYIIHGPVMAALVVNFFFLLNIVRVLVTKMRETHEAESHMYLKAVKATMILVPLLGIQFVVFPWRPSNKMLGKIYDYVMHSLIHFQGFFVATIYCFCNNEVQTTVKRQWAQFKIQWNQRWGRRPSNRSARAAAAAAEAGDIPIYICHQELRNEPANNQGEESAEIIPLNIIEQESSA
T1 sequence (looked up) 2: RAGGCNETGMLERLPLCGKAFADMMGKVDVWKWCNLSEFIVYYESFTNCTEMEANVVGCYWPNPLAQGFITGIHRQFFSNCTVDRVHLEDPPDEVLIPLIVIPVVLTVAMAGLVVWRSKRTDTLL
Kind of experiment: cell-based or functional assay.

*1 amine or outer side, *2 acyl side, *3 side chain or, on linkers, in order; H or OH if unused. Bridges are numbered along the chain shown (N, C = ends). [ ]: non-standard residue; d: D form. The star is where a group is joined. C20 diacid = O=C(O)CCCCCCCCCCCCCCCCCCC(=O)*; γGlu = O=C(O)[C@H](CCC(=O)[*:2])N[*:1]; Hyp = O=C(O)[C@@H]1C[C@@H](O)CN1; NMeI = CC[C@H](C)[C@H](NC)C(=O)O; Aad = N[C@@H](CCCC(=O)O)C(=O)O; Orn = NCCC[C@H](N)C(=O)O; Sar = CNCC(=O)O

B1: [19CD]-isoGlu-R-C( )-PTAT-C( )-ATDRLAHFLQRSSF-Gly(Me)-A-Ile(Me)-LSSTDVGSNT-Hyp-NH2 (Compd. 59) (peptide)
peptide: {C20 diacid}-[γGlu]RCPTATCATDRLAHFLQRSSF[Sar]A[NMeI]LSSTDVGSNT[Hyp]-NH2
modifications: disulfide 3-8
SMILES: CC[C@H](C)[C@@H](C(=O)N[C@@H](CC(C)C)C(=O)N[C@@H](CO)C(=O)N[C@@H](CO)C(=O)N[C@H](C(=O)N[C@@H](CC(=O)O)C(=O)N[C@H](C(=O)NCC(=O)N[C@@H](CO)C(=O)N[C@@H](CC(N)=O)C(=O)N[C@H](C(=O)N1C[C@H](O)C[C@H]1C(N)=O)[C@@H](C)O)C(C)C)[C@@H](C)O)N(C)C(=O)[C@H](C)NC(=O)CN(C)C(=O)[C@H](Cc1ccccc1)NC(=O)[C@H](CO)NC(=O)[C@H](CO)NC(=O)[C@H](CCCNC(=N)N)NC(=O)[C@H](CCC(N)=O)NC(=O)[C@H](CC(C)C)NC(=O)[C@H](Cc1ccccc1)NC(=O)[C@H](Cc1c[nH]cn1)NC(=O)[C@H](C)NC(=O)[C@H](CC(C)C)NC(=O)[C@H](CCCNC(=N)N)NC(=O)[C@H](CC(=O)O)NC(=O)[C@@H](NC(=O)[C@H](C)NC(=O)[C@@H]1CSSC[C@H](NC(=O)[C@H](CCCNC(=N)N)NC(=O)CC[C@H](NC(=O)CCCCCCCCCCCCCCCCCCC(=O)O)C(=O)O)C(=O)N2CCC[C@H]2C(=O)N[C@@H]([C@@H](C)O)C(=O)N[C@@H](C)C(=O)N[C@@H]([C@@H](C)O)C(=O)N1)[C@@H](C)O
As to B1, the “hAMYR3 EC50 (nM); cAMP induction” value amounted to 0.11 nM.

As to {C20 diacid}-[γGlu]RCNTATCATQRLAHFLQRSSF[Sar]A[NMeI]LSSTEVGSNT[Hyp]-NH2 (disulfide 3-8) [[19CD]-isoGlu-R-C( )-NTAT-C( )-ATQRLAHFLQRSSF-Gly(Me)-A-Ile(Me)-LSSTEVGSNT-Hyp-NH2 (Compd. 58)], the “hAMYR3 EC50 (nM); cAMP induction” value was 0.1 nM.

B2: [19CD]-isoGlu-R-C( )-NTAT-C( )-ATQRLAHFL-Aad-RSSF-Gly(Me)-A-Ile(Me)-LSSTEVGSNT-Hyp-NH2 (Compd. 50) (peptide)
peptide: {C20 diacid-γGlu}-RCNTATCATQRLAHFL[Aad]RSSF[Sar]A[NMeI]LSSTEVGSNT[Hyp]-NH2
modifications: disulfide 2-7
SMILES: CC[C@H](C)[C@@H](C(=O)N[C@@H](CC(C)C)C(=O)N[C@@H](CO)C(=O)N[C@@H](CO)C(=O)N[C@H](C(=O)N[C@@H](CCC(=O)O)C(=O)N[C@H](C(=O)NCC(=O)N[C@@H](CO)C(=O)N[C@@H](CC(N)=O)C(=O)N[C@H](C(=O)N1C[C@H](O)C[C@H]1C(N)=O)[C@@H](C)O)C(C)C)[C@@H](C)O)N(C)C(=O)[C@H](C)NC(=O)CN(C)C(=O)[C@H](Cc1ccccc1)NC(=O)[C@H](CO)NC(=O)[C@H](CO)NC(=O)[C@H](CCCNC(=N)N)NC(=O)[C@H](CCCC(=O)O)NC(=O)[C@H](CC(C)C)NC(=O)[C@H](Cc1ccccc1)NC(=O)[C@H](Cc1c[nH]cn1)NC(=O)[C@H](C)NC(=O)[C@H](CC(C)C)NC(=O)[C@H](CCCNC(=N)N)NC(=O)[C@H](CCC(N)=O)NC(=O)[C@@H](NC(=O)[C@H](C)NC(=O)[C@@H]1CSSC[C@H](NC(=O)[C@H](CCCNC(=N)N)NC(=O)CC[C@H](NC(=O)CCCCCCCCCCCCCCCCCCC(=O)O)C(=O)O)C(=O)N[C@@H](CC(N)=O)C(=O)N[C@@H]([C@@H](C)O)C(=O)N[C@@H](C)C(=O)N[C@@H]([C@@H](C)O)C(=O)N1)[C@@H](C)O
Consider B2, for which the “hAMYR3 EC50 (nM); cAMP induction” value was determined as 0.19 nM.

B3: [19CD]-isoGlu-R-C( )-GTAT-C( )-ATERLAHFLQRSSF-Gly(Me)-A-Ile(Me)-LSSTEVGSGT-Hyp-NH2 (Compd. 52) (peptide)
peptide: {C20 diacid}-[γGlu]RCGTATCATERLAHFLQRSSF[Sar]A[NMeI]LSSTEVGSGT[Hyp]-NH2
modifications: disulfide 3-8
SMILES: CC[C@H](C)[C@@H](C(=O)N[C@@H](CC(C)C)C(=O)N[C@@H](CO)C(=O)N[C@@H](CO)C(=O)N[C@H](C(=O)N[C@@H](CCC(=O)O)C(=O)N[C@H](C(=O)NCC(=O)N[C@@H](CO)C(=O)NCC(=O)N[C@H](C(=O)N1C[C@H](O)C[C@H]1C(N)=O)[C@@H](C)O)C(C)C)[C@@H](C)O)N(C)C(=O)[C@H](C)NC(=O)CN(C)C(=O)[C@H](Cc1ccccc1)NC(=O)[C@H](CO)NC(=O)[C@H](CO)NC(=O)[C@H](CCCNC(=N)N)NC(=O)[C@H](CCC(N)=O)NC(=O)[C@H](CC(C)C)NC(=O)[C@H](Cc1ccccc1)NC(=O)[C@H](Cc1c[nH]cn1)NC(=O)[C@H](C)NC(=O)[C@H](CC(C)C)NC(=O)[C@H](CCCNC(=N)N)NC(=O)[C@H](CCC(=O)O)NC(=O)[C@@H](NC(=O)[C@H](C)NC(=O)[C@@H]1CSSC[C@H](NC(=O)[C@H](CCCNC(=N)N)NC(=O)CC[C@H](NC(=O)CCCCCCCCCCCCCCCCCCC(=O)O)C(=O)O)C(=O)NCC(=O)N[C@@H]([C@@H](C)O)C(=O)N[C@@H](C)C(=O)N[C@@H]([C@@H](C)O)C(=O)N1)[C@@H](C)O
For the molecule B3, the “hAMYR3 EC50 (nM); cAMP induction” value was found to be 0.09 nM.

B4: [19CD]-isoGlu-R-C( )-GTAT-C( )-ATERLADFLQRSSF-Gly(Me)-A-Ile(Me)-LSSTEVGSNT-Hyp-NH2 (Compd. 54) (peptide)
peptide: {C20 diacid}-[γGlu]RCGTATCATERLADFLQRSSF[Sar]A[NMeI]LSSTEVGSNT[Hyp]-NH2
modifications: disulfide 3-8
SMILES: CC[C@H](C)[C@@H](C(=O)N[C@@H](CC(C)C)C(=O)N[C@@H](CO)C(=O)N[C@@H](CO)C(=O)N[C@H](C(=O)N[C@@H](CCC(=O)O)C(=O)N[C@H](C(=O)NCC(=O)N[C@@H](CO)C(=O)N[C@@H](CC(N)=O)C(=O)N[C@H](C(=O)N1C[C@H](O)C[C@H]1C(N)=O)[C@@H](C)O)C(C)C)[C@@H](C)O)N(C)C(=O)[C@H](C)NC(=O)CN(C)C(=O)[C@H](Cc1ccccc1)NC(=O)[C@H](CO)NC(=O)[C@H](CO)NC(=O)[C@H](CCCNC(=N)N)NC(=O)[C@H](CCC(N)=O)NC(=O)[C@H](CC(C)C)NC(=O)[C@H](Cc1ccccc1)NC(=O)[C@H](CC(=O)O)NC(=O)[C@H](C)NC(=O)[C@H](CC(C)C)NC(=O)[C@H](CCCNC(=N)N)NC(=O)[C@H](CCC(=O)O)NC(=O)[C@@H](NC(=O)[C@H](C)NC(=O)[C@@H]1CSSC[C@H](NC(=O)[C@H](CCCNC(=N)N)NC(=O)CC[C@H](NC(=O)CCCCCCCCCCCCCCCCCCC(=O)O)C(=O)O)C(=O)NCC(=O)N[C@@H]([C@@H](C)O)C(=O)N[C@@H](C)C(=O)N[C@@H]([C@@H](C)O)C(=O)N1)[C@@H](C)O
Take B4: the “hAMYR3 EC50 (nM); cAMP induction” value amounted to 0.14 nM.

B5: [19CD]-isoGlu-R-C( )-GTAT-C( )-ATERLAHFLQRSSF-Gly(Me)-A-Ile(Me)-LSSTEVGS-Orn-T-Hyp-NH2 (Compd. 51) (peptide)
peptide: {C20 diacid}-[γGlu]RCGTATCATERLAHFLQRSSF[Sar]A[NMeI]LSSTEVGS[Orn]T[Hyp]-NH2
modifications: disulfide 3-8
SMILES: CC[C@H](C)[C@@H](C(=O)N[C@@H](CC(C)C)C(=O)N[C@@H](CO)C(=O)N[C@@H](CO)C(=O)N[C@H](C(=O)N[C@@H](CCC(=O)O)C(=O)N[C@H](C(=O)NCC(=O)N[C@@H](CO)C(=O)N[C@@H](CCCN)C(=O)N[C@H](C(=O)N1C[C@H](O)C[C@H]1C(N)=O)[C@@H](C)O)C(C)C)[C@@H](C)O)N(C)C(=O)[C@H](C)NC(=O)CN(C)C(=O)[C@H](Cc1ccccc1)NC(=O)[C@H](CO)NC(=O)[C@H](CO)NC(=O)[C@H](CCCNC(=N)N)NC(=O)[C@H](CCC(N)=O)NC(=O)[C@H](CC(C)C)NC(=O)[C@H](Cc1ccccc1)NC(=O)[C@H](Cc1c[nH]cn1)NC(=O)[C@H](C)NC(=O)[C@H](CC(C)C)NC(=O)[C@H](CCCNC(=N)N)NC(=O)[C@H](CCC(=O)O)NC(=O)[C@@H](NC(=O)[C@H](C)NC(=O)[C@@H]1CSSC[C@H](NC(=O)[C@H](CCCNC(=N)N)NC(=O)CC[C@H](NC(=O)CCCCCCCCCCCCCCCCCCC(=O)O)C(=O)O)C(=O)NCC(=O)N[C@@H]([C@@H](C)O)C(=O)N[C@@H](C)C(=O)N[C@@H]([C@@H](C)O)C(=O)N1)[C@@H](C)O
Regarding B5, the “hAMYR3 EC50 (nM); cAMP induction” value was determined as 0.11 nM. Turning to {C20 diacid-γGlu}-RCNTATCATERLAHFLQRSSF[Sar]A[NMeI]LSSTEVGSNT[Hyp]-NH2 (disulfide 2-7) [[19CD]-isoGlu-R-C( )-NTAT-C( )-ATERLAHFLQRSSF-Gly(Me)-A-Ile(Me)-LSSTEVGSNT-Hyp-NH2 (Compd. 56)], the “hAMYR3 EC50 (nM); cAMP induction” value came to 0.08 nM.

B6: [19CD]-isoGlu-R-C( )-GTAT-C( )-ATERLAHFLQRSSF-Gly(Me)-A-Ile(Me)-LSSTEVGS-Aad-T-Hyp-NH2 (Compd. 53) (peptide)
peptide: {C20 diacid}-[γGlu]RCGTATCATERLAHFLQRSSF[Sar]A[NMeI]LSSTEVGS[Aad]T[Hyp]-NH2
modifications: disulfide 3-8
SMILES: CC[C@H](C)[C@@H](C(=O)N[C@@H](CC(C)C)C(=O)N[C@@H](CO)C(=O)N[C@@H](CO)C(=O)N[C@H](C(=O)N[C@@H](CCC(=O)O)C(=O)N[C@H](C(=O)NCC(=O)N[C@@H](CO)C(=O)N[C@@H](CCCC(=O)O)C(=O)N[C@H](C(=O)N1C[C@H](O)C[C@H]1C(N)=O)[C@@H](C)O)C(C)C)[C@@H](C)O)N(C)C(=O)[C@H](C)NC(=O)CN(C)C(=O)[C@H](Cc1ccccc1)NC(=O)[C@H](CO)NC(=O)[C@H](CO)NC(=O)[C@H](CCCNC(=N)N)NC(=O)[C@H](CCC(N)=O)NC(=O)[C@H](CC(C)C)NC(=O)[C@H](Cc1ccccc1)NC(=O)[C@H](Cc1c[nH]cn1)NC(=O)[C@H](C)NC(=O)[C@H](CC(C)C)NC(=O)[C@H](CCCNC(=N)N)NC(=O)[C@H](CCC(=O)O)NC(=O)[C@@H](NC(=O)[C@H](C)NC(=O)[C@@H]1CSSC[C@H](NC(=O)[C@H](CCCNC(=N)N)NC(=O)CC[C@H](NC(=O)CCCCCCCCCCCCCCCCCCC(=O)O)C(=O)O)C(=O)NCC(=O)N[C@@H]([C@@H](C)O)C(=O)N[C@@H](C)C(=O)N[C@@H]([C@@H](C)O)C(=O)N1)[C@@H](C)O
On to B6, for which the “hAMYR3 EC50 (nM); cAMP induction” value worked out at 0.13 nM.
